Experimental data as given in doi:10.1101/2020.05.13.094045.

B1: AtTCP4-RFP (natural protein)
chain: MSDDQFHHPPPPSSMRHRSTSDAADGGCGEIVEVQGGHIVRSTGRKDRHSKVCTAKGPRDRRVRLSAHTAIQFYDVQDRLGFDRPSKAVDWLIKKAKTSIDELAELPPWNPADAIRLAAANAKPRRTTAKTQISPSPPPPQQQQQQQQLQFGVGFNGGGAEHPSNNESSFLPPSMDSDSIADTIKSFFPVIGSSTEAPSNHNLMHNYHHQHPPDLLSRTNSQNQDLRLSLQSFPDGPPSLLHHQHHHHTSASASEPTLFYGQSNPLGFDTSSWEQQSSEFGRIQRLVAWNSGGGGGATDTGNGGGFLFAPPTPSTTSFQPVLGQSQQLYSQRGPLQSSYSPMIRAWFDPHHHHQSISTDDLNHHHHLPPPVHQSAIPGIGFASGEFSSGFRIPARFQGQEEEQHDGLTHKPSSASSISRH
B2: AtTCP13-RFP (natural protein)
chain: MNIVSWKDANDEVAGGATTRREREVKEDQEETEVRATSGKTVIKKQPTSISSSSSSWMKSKDPRIVRVSRAFGGKDRHSKVCTLRGLRDRRVRLSVPTAIQLYDLQERLGVDQPSKAVDWLLDAAKEEIDELPPLPISPENFSIFNHHQSFLNLGQRPGQDPTQLGFKINGCVQKSTTTSREENDREKGENDVVYTNNHHVGSYGTYHNLEHHHHHHQHLSLQADYHSHQLHSLVPFPSQILVCPMTTSPTTTTIQSLFPSSSSAGSGTMETLDPRQMVSHFQMPLMGNSSSSSSQNISTLYSLLHGSSSNNGGRDIDNRMSSVQFNRTNSTTTANMSRHLGSERCTSRGSDHHM

Legend:
[1] = target: AP_SAP11-like_PM19-GFP ('Candidatus Phytoplasma mali' strain PM19); test: FRET or BRET
[2] = target: AP_SAP11-like_PM19^Δ40-56-GFP ('Candidatus Phytoplasma mali' strain PM19); test: FRET or BRET

| Binder | FRET efficiency [1] [%] | FRET efficiency [2] [%] |
| --- | --- | --- |
| B1 | 11 |  |
| B2 | 9 | 8 |
